Reference: article PMC6650482, “Tyrosine 51 residue of the syndecan-2 extracellular domain is involved in the interaction with and activation of pro-matrix metalloproteinase-7” (Scientific Reports, 2019)

Legend:
MMP-7 in HT-29 cells [1] = experiment: MMP-7 expression on IL-1α treatment; assay type: cell-based, human; settings: 1 ng/ml IL-1α, syndecan-2- and Y51A-expressing HT-29 cells
Procedure: Figure 6 Tyrosine 51 of the syndecan-2 extracellular domain is involved in regulating pro-MMP-7 activation. (A) HT-29 cells were transiently transfected with 1 µg of vectors encoding SDC2 or the interaction-defective syndecan-2 mutant, Y51A, and the mRNA expression levels of SDC2 and MMP-7 were evaluated by RT-PCR (top). Conditioned media (CM) were collected and proteolytic activity was measured using quenched fluorescence peptide cleavage assay. The relative activity was normalized versus the fluorescence of a vector control (bottom). Data are shown as mean ± S.D. (n = 3), **p < 0.01 versus VEC or SDC2. (B) HT-29 cells were stably transfected with vectors encoding SDC2 or Y51A. The expression levels of the target mRNAs were analyzed by RT-PCR and quantitative real-time PCR (q-PCR) of three independent experiments was performed and normalized to GAPDH expression. Data are shown as mean ± S.D. (n = 3), *p < 0.05, **p < 0.01 versus VEC or SDC2 (left). […] CM were collected and proteolytic activity was measured using quenched fluorescence peptide cleavage assay (right bottom). […] The mRNA expression levels of SDC2 and MMP-7 were evaluated with RT-PCR (left top). CM were collected from the indicated cells and immunoblotted with an anti-MMP-7 antibody (left bottom) or subjected to quenched fluorescence peptide cleavage activity assay (right). […]

MMP-7 in HT-29 cells [2] = settings: cited from earlier work
Excerpt: Since syndecan-2 is known to mediate the activation of pro-MMP-7, we investigated how interrupting their interaction could affect syndecan-2-mediated MMP-7 activation. Firstly, we investigated whether the expression of syndecan-2 affects that of MMP-7.

B1: IL-1α: IL-1α was purchased from R&D Systems (protein, UniProt P01583 113-271, looked up)
Interleukin-1 alpha: SAPFSFLSNVKYNFMRIIKYEFILNDALNQSIIRANDQYLTAAALHNLDEAVKFDMGAYKSSKDDAKITVILRISKTQLYVTAQDEDQPVLLKEMPEIPKTITGSETNLLFFWETHGTKNYFTSVAHPNLFIATKQDYWVCLAGGPPSITDFQILENQA
MMP-7 expression (MMP-7 in HT-29 cells [1]): upregulation of MMP-7
MMP-7 expression in colon cancer cells (MMP-7 in HT-29 cells [2]): known to induce MMP-7 expression
